Source: IntAct's records for PubMed 22615398

Experiments:
[1] = molecular target: gemi_human GMNN (UniProt O75496)
[2] = molecular target: gemi_human GMNN (UniProt O75496); remark: listed apart in the source

gemi_human GMNN, sequence (O75496 whole entry): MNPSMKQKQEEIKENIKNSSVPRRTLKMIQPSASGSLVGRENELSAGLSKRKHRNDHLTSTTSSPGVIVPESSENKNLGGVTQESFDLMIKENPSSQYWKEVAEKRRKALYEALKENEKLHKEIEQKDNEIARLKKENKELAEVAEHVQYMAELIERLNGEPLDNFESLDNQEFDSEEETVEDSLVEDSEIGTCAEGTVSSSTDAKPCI
Homeobox protein Hox-C9 (Homo sapiens), P31274 R234A;M245A, sequence (P31274 whole entry R234A/M245A): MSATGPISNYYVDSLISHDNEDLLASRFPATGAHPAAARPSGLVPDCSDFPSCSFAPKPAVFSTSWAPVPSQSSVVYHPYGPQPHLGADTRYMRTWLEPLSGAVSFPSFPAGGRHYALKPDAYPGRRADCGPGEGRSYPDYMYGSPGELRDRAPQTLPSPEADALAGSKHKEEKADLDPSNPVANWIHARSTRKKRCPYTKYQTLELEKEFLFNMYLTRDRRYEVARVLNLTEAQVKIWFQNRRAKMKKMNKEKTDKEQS
Homeobox protein Hox-C9 (Homo sapiens), P31274 R193A;K194A;K195A;R196A, sequence (P31274 whole entry R193A/K194A/K195A/R196A): as the sequence (P31274 whole entry R234A/M245A) above, with R193A, K194A, K195A, R196A, A234R, A245M counted along it
Paired box protein Pax-6 (Homo sapiens), P26367 A252R;A263M, sequence (P26367 whole entry A252R/A263M): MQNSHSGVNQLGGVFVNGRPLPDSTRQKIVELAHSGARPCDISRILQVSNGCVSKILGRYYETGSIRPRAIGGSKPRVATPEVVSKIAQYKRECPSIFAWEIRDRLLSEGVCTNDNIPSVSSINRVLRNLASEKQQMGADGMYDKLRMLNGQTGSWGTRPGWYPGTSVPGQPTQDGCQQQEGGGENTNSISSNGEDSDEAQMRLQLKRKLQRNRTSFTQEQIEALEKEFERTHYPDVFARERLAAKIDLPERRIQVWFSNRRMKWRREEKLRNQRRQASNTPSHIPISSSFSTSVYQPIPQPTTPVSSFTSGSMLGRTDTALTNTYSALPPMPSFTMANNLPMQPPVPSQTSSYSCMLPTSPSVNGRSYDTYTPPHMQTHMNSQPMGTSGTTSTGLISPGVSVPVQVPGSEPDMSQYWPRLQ

Substance | effect of a mutation on the interaction [1] | effect of a mutation on the interaction [2]
Homeobox protein Hox-C9 (Homo sapiens), P31274 R193A;K194A;K195A;R196A | decreasing interaction strength | 
Homeobox protein Hox-C9 (Homo sapiens), P31274 R234A;M245A | decreasing interaction strength | 
Paired box protein Pax-6 (Homo sapiens), P26367 A252R;A263M |  | increasing interaction strength
